According to publication PMC4608048:

Target: UbcH10^LR (as used in surface plasmon resonance) (human)
Assay: SPR

- K^kin d (fast): 24 nM
- K^kin d (slow): 23 nM
- koff (fast): 0.04 s⁻¹
- koff (slow): 0.0046 s⁻¹
- kon (fast): 1.7e+06 M⁻¹ s⁻¹
- kon (slow): 170000 M⁻¹ s⁻¹
Substance: APC/C^Cdh1.Hsl1 (from UniProt Q9H1A4;Q9UJX6;P30260;Q9UJX5;Q9UJX4;Q13042;Q9UJX3;Q9UJX2;Q9UM13;Q9NYG5;Q8NHZ8;Q9BS18;P60006;Q96DE5;Q9UM11-2;P34244) (complex)
